Data published in US6716809B1, “Mage-A3 peptides presented by HLA class molecules” (priority 1997, dated 2004).

Legend:
[1] = test system: CD4 T cell clone LB 1555 CD4 436/B6.37; test: Recognition of retrovirally transduced cells by CD4 T cell clone (IFN-γ ELISA); format: cell-based, human; settings: overnight coculture
Procedure: The EBV transformed cells were infected by resuspending the cells in an infection cocktail and centrifugation. Target cells were resuspended in 60 mm tissue culture plates (Falcon) at a density of 1.0×10^6 cells in 4 ml infection cocktail. The plates were centrifuged for 2 hours at 32° C. and 1200 rcf in an IEC centrifuge, rotor type 228. For each plate to be transduced, 4 ml of […] was prepared by diluting the viral supernatant 1:2 in EBV cell growth medium and adding protamine sulfate to a final concentration of 6 μg/ml. Centrifugation was followed by another 2 hours of incubation in a humidified incubator at 37° C. and cells were transferred to 4 ml of target cell growth medium. This transduction cycle was carried out immediately after plating the cells and was repeated at 24 and 48 hours. […]
5000 T cells of LB705 CTL 434/1 or 3000 T cells of clone LB1555 CD4 436/B6.37 were washed and cultured overnight in the presence of 5000 retrovirally transduced EBV B cells of MZ2-EBV, or LG2-EBV B cells, in 100 μl ID medium containing 10% HS, AAG and 50 U/ml rh IL-2 in a round-bottom 96 wells plate. […] After three washings the plates were incubated with 50 μl per well horseradish peroxidase conjugated streptavidin (1:3000 in PBS/0.5% BSA) for 30 min at RT, which was detected by TMB substrate, and H2SO4 to stop the reaction. The optical density was read at 450 nm. […]

clone C3.43 = test: IFN-γ production by CD4 clone C3.43 stimulated with peptide- or protein-pulsed EBV-B cells; format: cell-based, human; settings: 20 μg/ml protein
Procedure: EBV-B cells from hemochromatosis patient 1981 (LB-1981-EBV) were incubated with 20 μg/ml of ovalbumin (OVA) or MAGE-A3 protein (bacteria) for 20 h. Ten thousand cells were distributed in microwells to which an aliquot of microculture C3 (˜4,000 effector cells) was added. Several clones were obtained from microculture C3, in particular CD4^+ clones LB1981-CD4 527/C3.22 (referred to hereafter as clone C3.22) and LB1981-CD4 527/C3.43 (referred to hereafter as clone C3.43). The clones C3.22 and C3.43 (˜3,000 cells) were stimulated with LB-1981-EBV incubated with 20 μg/ml of MAGE-A3 (˜16,000 cells) or transduced with a retrovirus coding for a fusion protein Ii-MAGE-A3 (˜20,000 cells). IFN-γ production in the supernatant was estimated after overnight culture by ELISA. They both recognized autologous EBV-B cells loaded with protein MAGE-A3 (bacteria) or transduced with a retrovirus encoding a truncated invariant chain (Ii)-MAGE-A3 fusion protein (FIG. 17). These (most probably twin) clones recognized cells expressing Ii-MAGE-A3 endogenously and therefore they are directed against a MAGE-A3-derived antigen and not against a contaminant in the batch of protein.
The antigenic peptides were identified as described above, except that the peptides were tested at a concentration of 1 μg/ml and that the test was performed in 100 μl. Peptides LGDPKKLLTQHFVQEN (SEQ ID NO:82), KKLLTQHFVQENYLEY (SEQ ID NO:83), TQHFVQENYLEYRQVP (SEQ ID NO:84) and VQENYLEYRQVPGSDP (SEQ ID NO:85) were tested. Autologous EBV-B cells were incubated for 1 h with 1 μg/ml of each of the peptides. Clone C3.43 (3,000 cells) was then cocultured with 20,000 peptide-pulsed cells for 20 h. IFN-γ production in the supernatant was measured by ELISA.
Patient LB1981 was typed DPB1*0401. To confirm that DPB1*0401 was the presenting HLA-DP molecule, additional EBV-B cell lines were tested. Autologous LB 1981-EBV or allogeneic-EBV-B cells were incubated for 1 h with 1 μg/ml of peptides, and washed. CD4 clones (3,000 cells) were then incubated for 20 h with 20,000 peptide-pulsed EBV-B cells. IFN-γ released in the supernatant was measured by ELISA. Those EBV-B cell lines expressing DPB1*0401 were able to present the MAGE-A3243-258 peptide to clone C3.22 (Table VII). DPB1*0401 is expressed in approximately 64% of Caucasians.

B1: MAGE-A3: MAGE-A3 protein; recombinant His-MAGE-A3 produced in E. coli, or expressed from MFG MAGE-A3 retrovirus in Example 6 (protein, listed as Homo sapiens)
chain: MPLEQRSQHCKPEEGLEARGEALGLVGAQAPATEEQEAASSSSTLVEVTLGEVPAAESPDPPQSPQGASSLPTTMNYPLWSQSYEDSSNQEEEGPSTFPDLESEFQAALSRKVAELVHFLLLKYRAREPVTKAEMLGSVVGNWQYFFPVIFSKASSSLQLVFGIELMEVDPIGHLYIFATCLGLSYDGLLGDNQIMPKAGLLIIVLAIIAREGDCAPEEKIWEELSVLEVFEGREDSILGDPKKLLTQHFVQENYLEYRQVPGSDPACYEFLWGPRALVETSYVKVLHHMVKISGGPHISYPPLHEWVLREGEE
modifications: His tag
recognition of transduced MZ2 EBV by CD4 clone 436/B6.37 (IFN-γ release) [1]: not recognized
recognition by clone C3.43 of autologous EBV-B cells loaded with protein (clone C3.43): recognized
